Measured values: patent publication US20260224624A1

Target: recombinant human TGFβ1 (rhTGFβ) (human) (UniProt P01137)
Test: cell-based or functional assay

UniProt P01137, sequence (P01137 279-390 limits assumed): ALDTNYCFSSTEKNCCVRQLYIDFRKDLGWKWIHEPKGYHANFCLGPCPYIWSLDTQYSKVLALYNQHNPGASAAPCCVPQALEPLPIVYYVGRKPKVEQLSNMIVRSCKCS

expansion of JK59 SwR-STEAP1 CAR T cells cultured 21 days with rhTGFβ: 15 fold
expansion of JK69 SwR-STEAP1 CAR T cells cultured 21 days with rhTGFβ: 33 fold
phosphorylation level of STAT5 (pY694) in CD3+ JK59 CAR T cells treated with rhTGFβ at 10 ng/ml for 15 min, flow cytometry: 60%
Substance: TGFβ-switch receptor (SwR): extracellular domains of TGFβRI and TGFβRII fused to the transmembrane and intracellular domains of the IL-2/IL-15 receptor β and γ chains
